# Source: the supplement of paper PMC7877785
# ± gives the uncertainty stated by the source.
# Assay: self-splicing fitness, log relative to wild type (ln ratio); higher = more splicing; Tetrahymena group I intron in knt gene, E. coli kanamycin selection, DiMSum; sequences stand for … in CUCUCU…GGAGGGAAAAGUUAUCAGGCAUGCACCUGGUAGCUAGUCUUUAAACCAAUAGAUUGCAUCGGUUUAAAAGGCAAGACCGUCAAAUUGCGGGAAAGGGGUCAACAGCCGUUCAGUACCAAGUCUCAGGGGAAACUUUGAGAUGGCCUUGCAAAGGGUAUGGUAAUAAGCUGACGGACAUGGUCCUAACCACGCAGCCAAGUCCUAAGUCAACAGAUCUUCUGUUGAUAUGGAUGCAGUUCACAGACUAAAUGUCGGUCGGGGAAGAUGUAUUCUUCUCAUAAGAUAUAGUCGGACCUCUCCUUAAUGGGAGCUAGCGGAUGAAGUGAUGCAACACUGGAGCCGCUGGGAACUAAUUUGUAUGCGAAAGUAUAUUGAUUAGUUUUGGAGUACUCGUGGUCG
# How it was run: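 The eight P1ex-region nucleotides of an intron in the knt kanamycin-resistance gene on pET-22b(+) were all randomised and the library put into E. coli BL21(DE3). Six replicate transformations were grown overnight at 37°C or 30°C on LB agar with or without 25 μg/mL kanamycin, together with 100 μg/mL carbenicillin, 50 μM IPTG and 0.2% rhamnose. Colonies were pooled and amplicon-sequenced on an Illumina HiSeq 2500. Fitness from DiMSum is the error-weighted combination of wild-type-normalised replicate fold changes, kanamycin over none.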
Sequence,self-splicing fitness (ln) (30 °C),self-splicing fitness (ln) (37 °C)
CCAUAGCAAUAUUACGACUU,-2.46 ± 0.17,-3.03 ± 0.32
CCAUAGCAAUAUUACGAGCU,-3.04 ± 0.36,-2.9 ± 0.47
CCAUAGCAAUAUUACGAGGC,-3.03 ± 0.15,-3.27 ± 0.21
CCAUAGCAAUAUUACGCAAG,-2.84 ± 0.17,-0.562 ± 0.13
CCAUAGCAAUAUUACGCAGC,–,-3.34 ± 0.42
CCAUAGCAAUAUUACGCCAC,–,-1.75 ± 0.49
CCAUAGCAAUAUUACGCCAG,-1.94 ± 0.14,-0.423 ± 0.14
CCAUAGCAAUAUUACGCCAU,-4.18 ± 0.31,-2.41 ± 0.25
CCAUAGCAAUAUUACGCCUC,-3.21 ± 0.4,-1.74 ± 0.29
CCAUAGCAAUAUUACGCCUU,-3.13 ± 0.22,-3.02 ± 0.22
CCAUAGCAAUAUUACGCGUA,-3.19 ± 0.4,-2.75 ± 0.41
CCAUAGCAAUAUUACGCUCA,-3.11 ± 0.18,-2.16 ± 0.25
CCAUAGCAAUAUUACGGACU,-3.84 ± 0.33,-1.85 ± 0.29
CCAUAGCAAUAUUACGGCCC,-1.72 ± 0.22,–
CCAUAGCAAUAUUACGGCCG,-0.548 ± 0.098,-0.739 ± 0.12
CCAUAGCAAUAUUACGGCUC,-2.85 ± 0.36,-2.59 ± 0.45
CCAUAGCAAUAUUACGGGCA,-3.32 ± 0.26,-2.95 ± 0.29
CCAUAGCAAUAUUACGGGGG,-3.01 ± 0.16,-3.36 ± 0.31
CCAUAGCAAUAUUACGUAGG,-2.29 ± 0.078,-1.37 ± 0.094
CCAUAGCAAUAUUACGUCGA,-3.03 ± 0.28,-2.2 ± 0.27
CCCAAGCAAUAUUACGAGAU,-2.91 ± 0.14,-3.31 ± 0.21
CCCAAGCAAUAUUACGAGUU,-3.89 ± 0.14,-2.68 ± 0.14
CCCAAGCAAUAUUACGCCAU,-3.28 ± 0.22,-2.5 ± 0.23
CCCAAGCAAUAUUACGCCCU,-3.14 ± 0.43,–
CCCAAGCAAUAUUACGCGAA,-3.55 ± 0.15,-2.63 ± 0.17

Sequence,self-splicing fitness (ln) (30 °C),self-splicing fitness (ln) (37 °C)
CCCAAGCAAUAUUACGCGCA,-4.14 ± 0.35,-2.72 ± 0.21
CCCAAGCAAUAUUACGCGCU,-3.79 ± 0.34,-1.91 ± 0.25
CCCAAGCAAUAUUACGCUAG,-2.63 ± 0.19,-2.72 ± 0.31
CCCAAGCAAUAUUACGCUGC,-2.44 ± 0.2,-2.43 ± 0.41
CCCAAGCAAUAUUACGCUGG,-3.55 ± 0.19,-2.52 ± 0.19
CCCAAGCAAUAUUACGGCCC,-2.39 ± 0.47,–
CCCAAGCAAUAUUACGGCCG,-2.73 ± 0.19,-2.43 ± 0.21
CCCAAGCAAUAUUACGGCUG,-4.22 ± 0.23,-2.69 ± 0.16
CCCAAGCAAUAUUACGGGUA,-4.37 ± 0.28,-2.81 ± 0.16
CCCAAGCAAUAUUACGGUAU,-4.33 ± 0.23,-2.51 ± 0.21
CCCAAGCAAUAUUACGUACC,–,-1.82 ± 0.28
CCCAAGCAAUAUUACGUAGG,-2.17 ± 0.067,-1.56 ± 0.082
CCCAAGCAAUAUUACGUCGA,-3.92 ± 0.26,-2.81 ± 0.2
CCCAAGCAAUAUUACGUCGC,-3.94 ± 0.28,-2.38 ± 0.16
CCCAAGCAAUAUUACGUGAA,-3.33 ± 0.14,-2.13 ± 0.14
CCCAAGCAAUAUUACGUGAC,-3.91 ± 0.25,-2.03 ± 0.19
CCCAAGCAAUAUUACGUGUC,-4.25 ± 0.26,-2.72 ± 0.18
CCCAAGCAAUAUUACGUUCA,-3.21 ± 0.23,-2.39 ± 0.29
CCCAAGCAAUAUUACGUUGA,-3.74 ± 0.14,-3.04 ± 0.14
CCCAAGCAAUAUUACGUUUC,-3.63 ± 0.16,-2.76 ± 0.15
CCCCAGCAAUAUUACGAAAU,-3.82 ± 0.17,-2.25 ± 0.18
CCCCAGCAAUAUUACGAACG,-3.44 ± 0.2,-2.19 ± 0.18
CCCCAGCAAUAUUACGAUGG,-3.49 ± 0.15,-2.82 ± 0.21
CCCCAGCAAUAUUACGCACA,-3.56 ± 0.21,-3.66 ± 0.29
